Results published in US20120270914A1 (Stanford University, published 2012).

Biological target: NFL-c-Myc (firefly, UniProt P08659 1-398 = luciferase, phosphorylated in the cells at S62 and T58 (c-Myc numbering))
Assay: cell-based or functional assay

Chain of NFL-c-Myc (P08659 other isoform, or with tags, fused parts or gaps limits assumed): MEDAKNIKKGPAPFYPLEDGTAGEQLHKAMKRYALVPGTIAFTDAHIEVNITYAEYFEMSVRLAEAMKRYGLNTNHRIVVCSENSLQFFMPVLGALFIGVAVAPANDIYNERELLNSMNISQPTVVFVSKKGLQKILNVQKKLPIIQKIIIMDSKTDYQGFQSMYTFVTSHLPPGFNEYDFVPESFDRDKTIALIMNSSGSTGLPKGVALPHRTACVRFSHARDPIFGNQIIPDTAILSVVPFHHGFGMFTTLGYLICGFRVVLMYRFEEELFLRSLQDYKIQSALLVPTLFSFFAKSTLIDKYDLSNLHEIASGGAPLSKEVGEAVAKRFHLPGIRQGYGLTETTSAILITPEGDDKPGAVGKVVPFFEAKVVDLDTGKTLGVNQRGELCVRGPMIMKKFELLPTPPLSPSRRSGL

Binder	complemented FL activity of SKBR3 xenografts in nude mice, normalized to hRL activity, compared with pcDNA3.1(+) vector [fold]	complemented FL activity (BLI, SKBR3 cells), compared with the pairing of GSK Full-CFL and NFL-SH2-SH2 [fold]
GSK 35-433-CFL (other, not shown: large carriers) SKVTTVVATPGQGPDRPQEVSYTDTKVIGNGSFGVVYQAKLCDSGELVAIKKVLQDKRFKNRELQIMRKLDHCNIVRLRYFFYSSGEKKDEVYLNLVLDYVPETVYRVARHYSRAKQTLPVIYVKLYMYQLFRSLAYIHSFGICHRDIKPQNLLLDPDTAVLKLCDFGSAKQLVRGEPNVSYICSRYYRAPELIFGATDYTSSIDVWSAGCVLAELLLGQPIFPGDSGVDQLVEIIKVLGTPTREQIREMNPNYTEFKFPQIKAHPWTKDSSGTGHFTSGVRVFRPRTPPEAIALCSRLLEYTPTARLTPLEACAHSFFDELRDPNVKLPNGRDTPALFNFTTQELSSNPPLATILIPPHARIQAAASTPTNATAASDANTGDRGQTNNAASASASNST	10.6	–
GSK Full-CFL (other, not shown: large carriers) MSGRPRTTSFAESCKPVQQPSAFGSMKVSRDKDGSKVTTVVATPGQGPDRPQEVSYTDTKVIGNGSFGVVYQAKLCDSGELVAIKKVLQDKRFKNRELQIMRKLDHCNIVRLRYFFYSSGEKKDEVYLNLVLDYVPETVYRVARHYSRAKQTLPVIYVKLYMYQLFRSLAYIHSFGICHRDIKPQNLLLDPDTAVLKLCDFGSAKQLVRGEPNVSYICSRYYRAPELIFGATDYTSSIDVWSAGCVLAELLLGQPIFPGDSGVDQLVEIIKVLGTPTREQIREMNPNYTEFKFPQIKAHPWTKDSSGTGHFTSGVRVFRPRTPPEAIALCSRLLEYTPTARLTPLEACAHSFFDELRDPNVKLPNGRDTPALFNFTTQELSSNPPLATILIPPHARIQAAASTPTNATAASDANTGDRGQTNNAASASASNST	–	> 10
